# Data as given in article PMC6710095.
# Like-named read-outs stand apart in the source and are kept apart here.
# Tests used:
# [1] = molecular target: C-terminal fragment of TraF/VirB10 in the D1 complex (residues 1-129 removed) (plasmid pKM101); assay: negative stain electron microscopy
# [2] = molecular target: TraF/VirB10 with C-terminal Strep-tag (TraF/VirB10 C-ST) (plasmid pKM101); assay: negative stain electron microscopy
# [3] = molecular target: TraN/VirB7 (pKM101-encoded T4SS lipoprotein) (plasmid pKM101); assay: negative stain electron microscopy
# [4] = molecular target: TraF/VirB10 with C-terminal Strep-tag (TraF/VirB10 C-ST) (plasmid pKM101)
# [5] = molecular target: TraO/VirB9 (pKM101-encoded T4SS) (plasmid pKM101); assay: negative stain electron microscopy
substance,measurement,setting,value
C-terminal fragment of TraF/VirB10 in the D1 complex (residues 1-129 removed) (domain or fragment),stoichiometry N,[1],14
TraF/VirB10 with C-terminal Strep-tag (TraF/VirB10 C-ST) (natural protein),stoichiometry N,[2],14
TraN/VirB7 (pKM101-encoded T4SS lipoprotein) (natural protein),stoichiometry N,[3],14
same,stoichiometry N,[4],1
TraO/VirB9 (pKM101-encoded T4SS) (natural protein),stoichiometry N,[5],14
same,stoichiometry N,[4],1
